{"source": "paper PMC3684959", "about": "(2013)", "target": "Arp2/3 complex (Bos taurus, UniProt A7MB62, CK-666)", "assay": "fluorescence anisotropy"}
{"binder": "cortactin NTA N-terminal acidic region (protein) MWKASAGHAVSIAQDDAGADDWETDPDFVNDVSEKEQRWGAKTVQGSGHQEHINIHKLRENVFQEHQTLKEKELETGPKASHGY", "values": [{"measurement": "Kd", "value": 1.2, "unit": "µM"}]}
